The values below come from the supplement of paper PMC12042874.

± gives the uncertainty stated by the source.

A short description of the data set: amyloid nucleation score (Sup35N fusion, yeast selection) (log enrichment); library NNK3; higher = more nucleation; inactive = no reads after selection. The method, boiled down: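 Peptides of 20 random codons, each fused to Sup35N, were expressed in psi-negative yeast. Cells were induced with 100 μM copper sulfate for 24 hours and grown 7 days at 30°C on medium lacking adenine and uracil, and plasmid inserts before and after selection were Illumina-sequenced. Nucleation scores are DiMSum log enrichments of output over input reads, centred on the mode score of non-aggregating sequences, and sequences under 100 input reads were excluded.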
As for CCVMHDE, the amyloid nucleation score result was “inactive”.
The value for CDFIHCLVCFLPIWKSCGTE was 0.732 ± 0.34; that for CDMDVFLSNMPSSVVNRSG was “inactive”; that for CDTFVVNMSQFLSISTMAER was 0.66 ± 0.17.
For CEYVNKLHTVGVHWGTGSRE the value was “inactive”.
For CFAVWHISVEMYVRDRW the value was “inactive”; for CFAYCFLSLFEMRIWTN, -0.074 ± 0.64; for CFCFARFKFR, 2.19 ± 0.071.
The substance CFCVDADIIRTLMVCDIILS returned an amyloid nucleation score of 1.12 ± 0.099.
Regarding CFDWYFDNDTRFIVGAMLVW, the amyloid nucleation score entry was “inactive”.
As for CFFLYCLNFFMRSIERDRDG, the amyloid nucleation score amounted to 2.24 ± 0.054.
The value for CFGHYSMN was “inactive”; that for CFHVILFK was 1.11 ± 0.095.
Take CFLYLLLQTN: the amyloid nucleation score entry was “inactive”.
For CFPIASHGDSCGMIAA the value was “inactive”.
With CFQDRQKLF, the amyloid nucleation score entry was “inactive”.
As to CFSVGKWSIFRN, the amyloid nucleation score result is “inactive”.
For CFSYGMWNSLPRWLALN the value was “inactive”.
The value for CFSYSLGVLVTYRGCYRSVL was “inactive”.
The value for CFTLFVSQYVNDLDDYKRNW was 1.34 ± 0.092; that for CFVDFYSWWLSITVQGLHNN was “inactive”; that for CFVFTFGT was 1.38 ± 0.082.
With CFVFWKSRQIYWMMMSRCVV, the amyloid nucleation score result is “inactive”.
For CFVVNCHYFDFMDV the value was 2.51 ± 0.06.
The value for CFVYRTLISNLFSIWHSLQF was “inactive”; that for CFYIKKSKVGLGHWINHV was “inactive”.
The value for CGEYMRCLNVEYRCVGVKGS was “inactive”; that for CGPFGFMCDAVGSAQFDIMM was “inactive”.
In the case of CGQFVEISKYG, the amyloid nucleation score entry is “inactive”.
As for CGSRLYRCETAMMVLRIRSG, the amyloid nucleation score entry is “inactive”.
Turning to CGTTVGFLMLYLSCIRWL, the amyloid nucleation score result was “inactive”.
For CGYEVIGNIFGM the value was “inactive”; for CHAIASVVSEYNGPLVVTVI, “inactive”; for CIAMKMWKNIRRWWSGRVAG, “inactive”.
The value for CIGFGCLLIVHLPIYACPWC was “inactive”; that for CIHTPDRCKVCNGITFDGRC was “inactive”.
Turning to CIQLVVT, the amyloid nucleation score result is “inactive”.
The value for CIQSMRH was “inactive”.
For CIRICNISFFL the value was 2.71 ± 0.075.
In the case of CISLSRL, the amyloid nucleation score entry was “inactive”.
The value for CISTVIEKMLVIYEKNRFQH was 0.529 ± 0.46.
For the substance CIVMG, the amyloid nucleation score result was “inactive”.
For CKHYVGLYKLTVWRFCGKNT the value was “inactive”; for CKPDLMA, “inactive”; for CLACFI, “inactive”.
The substance CLALSGIIIFELKAYLGSWC displayed an amyloid nucleation score of 1.27 ± 0.12.
The value for CLDPRGRNRAGPAVIGGPSV was “inactive”; that for CLFSGEGLARKCYSDNS was “inactive”; that for CLFSLLYPCGWINYSNSNMS was 0.437 ± 0.17.
For CLGNENVELVSTNVVYRYIS the value was “inactive”; for CLIFDLSRKKYWVKRDRKAW, 1.91 ± 0.062.
For CLIYTTVFHSAG the value was 0.708 ± 0.13; for CLKFQSVY, “inactive”; for CLKSA, -0.912 ± 0.93.
Turning to CLLNGDLHVEGWTLV, the amyloid nucleation score entry was “inactive”.
For CLPPKS the value was “inactive”.
